Where a chain is given by its changes, count along the chain named. Blank lines part the entries; values can stand above or below the binder they belong to.
Assays:
[1] = molecular target: human IL-13Rα2 on the surface of human tumour cell lines (human) (UniProt Q14627); experiment: FACS, 10 µg/mL, PC3MM2 (prostate) cells
[2] = molecular target: human IL-13Rα2 on the surface of human tumour cell lines (human) (UniProt Q14627); experiment: FACS, 10 µg/mL, SW626 (ovarian) cells
[3] = molecular target: human IL-13Rα2 on the surface of human tumour cell lines (human) (UniProt Q14627); experiment: cell-based or functional assay
[4] = molecular target: human IL-13Rα2 on the surface of human tumour cell lines (human) (UniProt Q14627); experiment: FACS, 10 µg/mL, H460 (lung, cisplatin resistant) cells
[5] = molecular target: human IL-13Rα2 on the surface of human tumour cell lines (human) (UniProt Q14627); experiment: FACS, 10 µg/mL, U87MG (glioblastoma) cells
[6] = molecular target: human IL-13Rα2 on the surface of human tumour cell lines (human) (UniProt Q14627); experiment: FACS, 10 µg/mL, Hs766T (pancreatic) cells
[7] = molecular target: human IL-13Rα2 on the surface of human tumour cell lines (human) (UniProt Q14627); experiment: FACS, 10 µg/mL, A498 (renal) cells
[8] = molecular target: human IL-13Rα2 on the surface of human tumour cell lines (human) (UniProt Q14627); experiment: FACS, 10 µg/mL, A375 (melanoma) cells
[9] = molecular target: human IL-13Rα2 on the surface of human tumour cell lines (human) (UniProt Q14627); experiment: FACS on A375 cells
[10] = molecular target: human IL-13Rα2 on the surface of human tumour cell lines (human) (UniProt Q14627); experiment: cell-based ELISA on A375 cells (given as ED50)
[11] = molecular target: human IL-13Rα2 on the surface of human tumour cell lines (human) (UniProt Q14627); experiment: competition ELISA on A375 cells, competitor biotinylated ch07

Chain of human IL-13Rα2 on the surface of human tumour cell lines (human) (Q14627 27-380): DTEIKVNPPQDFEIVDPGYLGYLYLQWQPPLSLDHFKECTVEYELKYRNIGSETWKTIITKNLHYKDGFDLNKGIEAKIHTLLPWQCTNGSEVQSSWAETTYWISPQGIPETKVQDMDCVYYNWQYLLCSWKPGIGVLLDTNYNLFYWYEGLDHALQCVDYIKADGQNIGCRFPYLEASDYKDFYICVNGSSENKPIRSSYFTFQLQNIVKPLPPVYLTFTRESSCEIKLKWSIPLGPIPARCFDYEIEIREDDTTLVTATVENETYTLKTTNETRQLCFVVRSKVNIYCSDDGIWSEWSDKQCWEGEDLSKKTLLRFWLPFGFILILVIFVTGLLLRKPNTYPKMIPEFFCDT

B2: chimeric antibody ch08 (antibody, human IgG1, V domains shown)
VH: EVQLVESGGDLVRPGGSLQLSCAASGFTFSRNGMSWVRQTPDRRLEWVATVSSGGSYIYYADSVKGRFTISRDNARNTLYLQMSSLKSEDTAMYYCARQGTTALATRFFDVWGAGTTVTVSS
VL: DIVMTQSHKFISTSVGDRVSITCKASQDVGTAVAWYQQIPGQSPKLLIYSASYRSTGIPDRFTGSGSGTDFSFIISSVQAEDLALYYCQHHYSAPWTFGGGTTLDIK
EC50 [9]: 5.64 nM

B5: chimeric antibody ch07 (antibody, human IgG1, V domains shown)
VH: QVQLKESGPGLVAPSQSLSINCTVSGFSLTKYGVHWIRQSPGKGLEWLGVKWAGGSTDYNSALMSRLTISKDNNKSQVFLKMNSLQSDDSAMYYCARDHRDAMDYWGQGTSVTVSS
VL: QVVLTQSPAIMSASPGERVTMTCTASLSVSSTYLHWYHQKPGSSPKLWIYSTSNLASGVPARFSGSGSGTSYSLTISSMEAEDAATYYCHQYHRSPLTFGSGTKLELK
EC50 [10]: 0.85 nM
IC50 [11]: 17.3 nM

B9: hu07 heavy chain v1.5 / light chain v1.0 (antibody, IgG1, V domains shown)
VH: EVQLVESGGGLVQPGGSLRLSCAASGFSLTKYGVHWVRQAPGKGLEWVGVKWAGGSTDYNSALMSRFTISKDNAKNSLYLQMNSLRAEDTAVYYCARDHRDAMDYWGQGTLVTVSS
VL: DIQMTQSPSSLSASVGDRVTITCTASLSVSSTYLHWYQQKPGKAPKLLIYSTSNLASGVPSRFSGSGSGTDFTLTISSLQPEDFATYYCHQYHRSPLTFGGGTKVEIK
EC50 [10]: 1.17 nM
IC50 [11]: 12.3 nM

B10: hu07 heavy chain v1.5 / light chain v1.1 (antibody, IgG1, V domains shown)
VH: B9 VH
VL: B9 VL with K43S, A44S, D71S
EC50 [10]: 1.29 nM
IC50 [11]: 19 nM

Other lines, results leading:

Mean Fluorescent Intensity [1]: 72000
Mean Fluorescent Intensity [2]: 8000
% internalization, 15 min, A375 [3]: 68%
% internalization, 15 min, H460R [3]: 55.9%
% internalization, 15 min, Hs766T [3]: 64.1%
% internalization, 15 min, PC3MM2 [3]: 81.9%
% internalization, 4 hours, A375 [3]: 61.8%
% internalization, 4 hours, H460R [3]: 47.4%
% internalization, 4 hours, Hs766T [3]: 76.3%
% internalization, 4 hours, PC3MM2 [3]: 41.6%
internalized after a 1 hour incubation with A375 cells at 37° C. [3]: 31%
Mean Fluorescent Intensity [4]: 22000
Mean Fluorescent Intensity [5]: 62000
Mean Fluorescent Intensity [6]: 14000
Mean Fluorescent Intensity [7]: 5000
Mean Fluorescent Intensity [8]: 46000
B1: murine anti-IL-13Rα2 antibody mu08 (antibody, mouse IgG1, V domains shown)
VH: B2 VH
VL: B2 VL

Mean Fluorescent Intensity [1]: 84000
Mean Fluorescent Intensity [2]: 9000
% internalization, 15 min, A375 [3]: 63.1%
% internalization, 15 min, H460R [3]: 74.4%
% internalization, 15 min, Hs766T [3]: 69.6%
% internalization, 15 min, PC3MM2 [3]: 88.6%
% internalization, 4 hours, A375 [3]: 38.1%
% internalization, 4 hours, H460R [3]: 38.4%
% internalization, 4 hours, Hs766T [3]: 69%
% internalization, 4 hours, PC3MM2 [3]: 50.3%
internalized after a 1 hour incubation with A375 cells at 37° C. [3]: 38%
Mean Fluorescent Intensity [4]: 28000
Mean Fluorescent Intensity [5]: 61000
Mean Fluorescent Intensity [6]: 13000
Mean Fluorescent Intensity [7]: 13000
Mean Fluorescent Intensity [8]: 53000
B3: murine anti-IL-13Rα2 antibody mu07 (antibody, mouse IgG1, V domains shown)
VH: B5 VH
VL: B5 VL

EC50 [10]: 0.87 nM
IC50 [11]: 7.67 nM
B4: hu07 heavy chain v1.5 paired with chimeric light chain (antibody, V domains shown)
VH: B9 VH
VL: B5 VL

EC50 [9]: 6.52 nM
B6: humanized antibody hu08 v1.0 HC/v1.1 LC (antibody, IgG1, V domains shown)
VH: EVQLVESGGGLVQPGGSLRLSCAASGFTFSRNGMSWVRQAPGKGLEWVATVSSGGSYIYYADSVKGRFTISRDNAKNSLYLQMNSLRAEDTAVYYCARQGTTALATRFFDVWGQGTLVTVSS
VL: DIQMTQSPSSLSASVGDRVTITCKASQDVGTAVAWYQQIPGKAPKLLIYSASYRSTGVPDRFSGSGSGTDFSFIISSLQPEDFATYYCQHHYSAPWTFGGGTKVEIK

EC50 [9]: 5.16 nM
B7: humanized antibody hu08 v1.1 HC/v1.1 LC (antibody, IgG1, V domains shown)
VH: B6 VH with A40T, G42D, G44R, N84S
VL: B6 VL

EC50 [9]: 4.15 nM
B8: humanized antibody hu08 v1.1 HC/v1.0 LC (antibody, IgG1, V domains shown)
VH: B6 VH with A40T, G42D, G44R, N84S
VL: B6 VL with I39K, D60S, S72T, F73L, I74T

— patent US20150266962A1
